T1: cynomolgus ABCG2 (Macaca fascicularis) (Macaca fascicularis (cynomolgus), UniProt Q5MB13 1-654 (rhesus entry))
T1 construct: also called cABCG2
T1 sequence: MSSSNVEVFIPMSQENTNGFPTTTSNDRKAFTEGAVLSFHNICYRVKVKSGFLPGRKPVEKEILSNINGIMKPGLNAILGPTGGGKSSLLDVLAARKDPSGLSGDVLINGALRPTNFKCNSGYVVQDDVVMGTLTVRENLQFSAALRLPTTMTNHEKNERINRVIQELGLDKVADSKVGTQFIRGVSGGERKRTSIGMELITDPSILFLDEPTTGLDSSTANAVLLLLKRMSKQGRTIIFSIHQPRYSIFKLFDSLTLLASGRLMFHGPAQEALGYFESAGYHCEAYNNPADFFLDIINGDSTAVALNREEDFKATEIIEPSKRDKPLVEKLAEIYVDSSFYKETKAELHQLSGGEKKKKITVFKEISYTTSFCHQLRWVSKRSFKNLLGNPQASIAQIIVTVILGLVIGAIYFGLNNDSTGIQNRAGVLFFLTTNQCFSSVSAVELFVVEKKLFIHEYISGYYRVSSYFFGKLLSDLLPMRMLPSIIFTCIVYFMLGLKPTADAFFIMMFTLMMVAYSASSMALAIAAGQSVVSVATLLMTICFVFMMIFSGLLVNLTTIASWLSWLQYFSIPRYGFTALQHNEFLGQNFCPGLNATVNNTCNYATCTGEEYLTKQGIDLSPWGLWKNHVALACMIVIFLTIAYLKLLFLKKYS

T2: human ABCG2 (human, UniProt Q9UNQ0 1-655)
T2 construct: also called hG2; KPG2
T2 sequence: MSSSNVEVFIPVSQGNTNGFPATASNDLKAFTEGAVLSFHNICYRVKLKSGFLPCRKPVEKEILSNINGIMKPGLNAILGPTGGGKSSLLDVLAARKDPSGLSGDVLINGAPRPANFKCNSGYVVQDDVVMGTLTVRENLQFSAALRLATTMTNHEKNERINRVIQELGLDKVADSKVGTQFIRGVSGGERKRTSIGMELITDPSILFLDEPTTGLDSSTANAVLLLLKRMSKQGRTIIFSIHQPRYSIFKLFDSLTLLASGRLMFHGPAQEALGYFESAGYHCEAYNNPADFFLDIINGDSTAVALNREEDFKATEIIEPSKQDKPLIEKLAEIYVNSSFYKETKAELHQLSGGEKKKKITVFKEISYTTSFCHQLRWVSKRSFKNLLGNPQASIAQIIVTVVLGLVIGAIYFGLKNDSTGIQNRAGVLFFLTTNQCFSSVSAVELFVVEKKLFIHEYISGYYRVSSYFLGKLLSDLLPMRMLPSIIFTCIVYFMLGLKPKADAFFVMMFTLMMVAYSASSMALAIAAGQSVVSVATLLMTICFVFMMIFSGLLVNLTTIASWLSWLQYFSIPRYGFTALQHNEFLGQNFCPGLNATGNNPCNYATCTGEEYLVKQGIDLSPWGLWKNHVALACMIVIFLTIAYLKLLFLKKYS


Key:
[1] = molecular target: T1, cynomolgus ABCG2 (Macaca fascicularis); assay: flow cytometry on cells expressing cynomolgus ABCG2; paragraph 395: non-significant binding = -
Description: (§1) Cell Binding Assays. Antibody binding to cells was evaluated by flow cytometry. […] After incubating cells on ice for 30 min, cells were washed twice with flow cytometry buffer. Bound antibody was detected with PE-labeled F(ab′)₂ fragment goat anti-human IgG (Jackson ImmunoResearch) and evaluated on an Attune NxT flow cytometer.

[2] = molecular target: T2, human ABCG2; assay: flow cytometry titration on 293T_ABCG2_OX cells; column Affinity for human ABCG2 (nM)
Description: as §1

[3] = molecular target: T1, cynomolgus ABCG2 (Macaca fascicularis); assay: flow cytometry on cells expressing cynomolgus ABCG2
Description: as §1

| binding result [1] | Kd [2] [nM] | binding result [3] | Binder |
| --- | --- | --- | --- |
| no binding | 17 | – | G2.173 mouse (antibody, human IgG1, V domains shown, Variable regions cloned onto human IgG1 constant heavy chain and human kappa constant light chain) VH: QVQLQQSGADLVRPGASVKLSCTASGFNIKDDYVHWVKQRPEQGLEWIGRIDPANGNTRYAPKFRGKATMTADTSSNTAYLQLSSLTSADTAVYYCSPPLWVGGFAYWGQGTLVTVSS VL: DVVMTQTPLSLPVSLGDQASISCRSSQSLVHSDVNTYLHWYLQRPGQSPKLLIYKVSNRFSGVPDRFSGSGSGTDFTLKISRVESEDLGIYFCSQTTHVPYTFGGGTKLEIK |
| no binding | 46 | – | G2.173 Humanized 1 (antibody, human IgG1, V domains shown) VH: EVQLVQSGAEVKKPGASVKVSCKASGFNIKDDYVHWVRQAPGQGLEWIGRIDPANGNTRYAPKFRGRATMTADTSISTAYMELSRLRSDDTAVYYCSPPLWVGGFAYWGQGTLVTVSS VL: DVVMTQSPLSLPVTLGQPASISCRSSQSLVHSDVNTYLHWYQQRPGQSPRLLIYKVSNRFSGVPDRFSGSGSGTDFTLKISRVEAEDVGVYFCSQTTHVPYTFGGGTKLEIK |
| no binding | 273 | – | G2.173 Humanized 2 (antibody, human IgG1, V domains shown) VH: EVQLVQSGAEVKKPGASVKVSCKASGFNIKDDYVHWVRQAPGQGLEWIGRIDPAQGNTRYAPKFRGRATMTADTSISTAYMELSRLRSDDTAVYYCSPPLWVGGFAYWGQGTLVTVSS VL: DVVMTQSPLSLPVTLGQPASISCRSSQSLVHSDVNTYLHWYQQRPGQSPRLLIYKVSNRFSGVPDRFSGSGSGTDFTLKISRVEAEDVGVYFCSQTTHVPYTFGGGTKLEIK |
| no binding | 44 | – | G2.173 Humanized 3 (antibody, human IgG1, V domains shown) VH: EVQLVQSGAEVKKPGASVKVSCKASGFNIKDDYVHWVRQAPGQGLEWIGRIDPASGNTRYAPKFRGRATMTADTSISTAYMELSRLRSDDTAVYYCSPPLWVGGFAYWGQGTLVTVSS VL: DVVMTQSPLSLPVTLGQPASISCRSSQSLVHSDVNTYLHWYQQRPGQSPRLLIYKVSNRFSGVPDRFSGSGSGTDFTLKISRVEAEDVGVYFCSQTTHVPYTFGGGTKLEIK |
| – | 25 | binds | G2.302 mouse (antibody, human IgG1, V domains shown, Variable regions cloned onto human IgG1 constant heavy chain and human kappa constant light chain; also called G.302) VH: QIQLQQSGPELVRPGASVKISCKASGYTFTDYYINWVKQRPGQGLEWIGWIYPGNVNVKYNEKFKGKATLTVDTSSSTGYMQLRSLTSEDSAVYFCARSIGLRYFDNWGQGTTLTVSS VL: EKVLTQSPAIMSASLGEKVTMSCRASSSVHYMYWHQQKSDASPRLWIYYTSNLAPGVPARFSGSGSGNFYSLTISSVEDEDGATYYCQQFTTSTWTFGGGTKLEIK |
| – | 40 | binds | G2.343 rat (antibody, human IgG1, V domains shown, Variable regions cloned onto human IgG1 constant heavy chain and human kappa constant light chain) VH: SVQLKESGPGLVQPSQTLSLTCTVSGFSLTSNGVSWVRQPPGKGLEWIAAISSGGSTYYNSVLKSRLSISRDTSKSQVFLKMNSLQTEDTAIYFCTRDTYYGYNQIPFVYWGQGTLVTVSS VL: DVVLAQTPPTLSATIGQSVSISCRSSQSLLHSSGNTYLNWLLQRPGQPPQLLIYLVSRLESRVPNRFSGSGSGTDFTLKISGVEAEDLGVYYCVQSTHAPRTFGGGTKLELK |
| – | 56 | binds | G2.420 rat (antibody, human IgG1, V domains shown, Variable regions cloned onto human IgG1 constant heavy chain and human kappa constant light chain; also called G.420; KNJY-G2-420) VH: SVQLMESGPGLVQPSQTLSLTCTVSGFSLNSYNVNWVRQPPGKGLEWIAAISSGGSTYYNSVLKSRLSITRDTSKSQVFLKMNSLQTEDTAMYFCARSGYYSSYMNWGQGVMVTVSS VL: DVVMTQTPPTLSATIGQSVSISCRSSQSLLHSTGNTYLNWLLQRPGQPPQLLIYLVSRLEYGVPNRFSGSGSGTDFTLKISGVEAEDLGVYYCAQSTHALNTFGAGTKLELK |
| – | 168 | binds | G2.346 rat (antibody, human IgG1, V domains shown, Variable regions cloned onto human IgG1 constant heavy chain and human kappa constant light chain) VH: SVQWKESGPGLVQPSQTLSLTCTVSGFSLTSNGVSWVRQPPGKGLEWIAAISSGGSTYYNSGLKSRLSISRDTSKSQVFLKMNSLQTEDTAIYFCTRAGYYGYNPIWFTYWGQGTLVTVSS VL: DVVMTQTPPTLSATIGQSVSISCRSSQSLLHGSGNTYLNWLLQRPGQPPQILIYLVSRLESRVPKRFSGSGSGTDFTLKISGVEADDLGVYYCVQSTHAPFTFGSGTKLELK |
| – | 80 | binds | G2.348 rat (antibody, human IgG1, V domains shown, Variable regions cloned onto human IgG1 constant heavy chain and human kappa constant light chain) VH: EVQLVESGPGLMQPSQTLSLTCTVSGFSLTSNGVSWVRQPPGKGLEWIATISSGGNTNYNSALKSRLSISRDTSKSQVFLKMNSLQTEDTAIYFCTRVGYYGYNPIWFAYWGQGTLVTVSS VL: DVVMTQTPPTLSATIGHSVSISCRSSQSLFHSSGNTYLSWFLQRPGQPPQLLIYLVSRLESRVPNRFSGSGSGTDFTLKISVLEAEDLGVYYCVQTTHAPFTFGSGTKLEIK |
| – | 7.9 | binds | G2.257 mouse (antibody, human IgG1, V domains shown, Variable regions cloned onto human IgG1 constant heavy chain and human kappa constant light chain) VH: EVQLQQSGPELVKPGASLKISCKTFGYSFTGYYMHWVKQSPEKSLEWIGKIVPSTGGTTYNQKFKAKATLTVDKSSFTAYMQLKSLTTEDSAVYYCAREKVYGYDVYYFDYWGQGTTLTVSS VL: DIQMTQTPSSLSASLGDRVTITCSTSQGVRSYLNWYQQKPDGSVKLLIYYTSSLHSGVPSRFSGSGSGTDYSLTISNLEPEDIATYYCQQYSKLPYTFGGGTKLELK |
| – | – | binds | G2.630 rat (antibody, human IgG1, V domains shown, Variable regions cloned onto human IgG1 constant heavy chain and human kappa constant light chain) VH: EVQLVESGPGLVKPSQSLSLTCSVTGYTITSGYDWTWIRKFPGNKMEWMGYISYSGFTNYNPSLRSRISITRDTSKNQFFLQLNSVTTEDTATYYCTRTRGYNPFAYWGQGTLVTVSS VL: DVVMTQSPSLLSASVGDRVTLSCKAGRNINNYLAWYQQKLGKAPKLLIYNTNSLQTGIPSRFSGSGSGTDFTLTISSLQPEDVATYFCQQYNSWTTFGSGTKLEIK |
| – | – | binds | G2.318 rat (antibody, human IgG1, V domains shown, Variable regions cloned onto human IgG1 constant heavy chain and human kappa constant light chain) VH: EVKLLESGPGLVKPSQSLSLTCSVTGYTITSGYDWSWIRKFPGNKMEWMGYISYSGWTNYNPSLRSRISISRDTSKNQFFLQLNSVTTEDTATYYCARVRGYNPFAYWGQGTLVTVSS VL: DIVMTQSPSLLSASVGDRVTLSCKAGQNINNYLAWYQQKLGEAPKLLIYNANSLQTGIPSRFSGSGSGTDFTLTISSLQPEDVATYFCQQYNSWTTFGSGTKLEIK |
| – | – | binds | G2.320 rat (antibody, human IgG1, V domains shown, Variable regions cloned onto human IgG1 constant heavy chain and human kappa constant light chain) VH: EVQLEESGPGLVKPSQSLSLTCSVTGYTITSGYDWTWIRKFPGNKMEWMGYISYSGFTNYNPSLRSRISITRDTSKNQFFLQLNSVTTEDTATYYCTRTRGYNPFAYWGQGASVSSAS VL: DIVMTQSPSLLSASVGDRVTLSCKAGRNINNYLAWYQQKLGKAPKLLIYNTNSLQTGIPSRFSGSGSGTDFTLTISSLQPEDVATYFCQQYNSWTTFGSGTKLEIK |
| – | 59 | binds | G2.302 Humanized (antibody, human IgG1, V domains shown) VH: EIQLVQSGAEVKKPGASVKVSCKASGYTFTDYYINWVRQAPGQRLEWIGWIYPGNVNVKYNEKFKGRATLTVDTSASTGYMELSSLRSEDTAVYFCARSIGLRYFDNWGQGTLVTVSS VL: EKVLTQSPATLSLSPGERATLSCRASSSVHYMYWHQQKPGQSPRLWIYYTSNLAPGVPARFSGSGSGNDYTLTISSLEPEDFAVYYCQQFTTSTWTFGGGTKLEIK |
| – | 88 | binds | G2.394 rat (antibody, human IgG1, V domains shown, Variable regions cloned onto human IgG1 constant heavy chain and human kappa constant light chain) VH: EVQLKESGPGLVQPSQTLSLTCTVSGFSLTDYTITWVRQPPGKGLEWIAATSVGGATHYNSPLKSRLSISGDTSKSQVFLKMNSLRTEDTAMYFCVRSGYYSTYMNWGRGTMVTVSS VL: DVVMTQTPPTFSATIGQSVSISCRSSQSLLHSSGNTFLSWLLQRPGQPPQLLIYLVSRLEFGVPNRFSGSGSGTDFTLKISGVEAEDLGVYYCVQSTHVMNTFGAGTKLEIK |
| no binding | 179 | – | G2.65 mouse (antibody, human IgG1, V domains shown, Variable regions cloned onto human IgG1 constant heavy chain and human kappa constant light chain; also called KNJY-G2-65) VH: QGQMHQSGAELVKPGASVKLSCKTSGFTFNSGYISWLKQKPRQSLEWIAWIYAGTGISNFNQKFTGKAQLTVDTSSSTAYMQLSSLTSADSAIYFCASGARKTLDFWGQGTSVTVSS VL: DIQMTQSSSYLSVSVGGRVTITCKASDQINYWLAWYQQKPGNAPRLLISGATSLETGVPSRFSGSGSGKDYTLSITSFQTEDVATYYCQQYWTTPYTFGGGTKVEIK |

Reference: patent US20230212305A1 (published 2023)
